Experimental data as given in the nanobody polyreactivity screen of Harvey et al. (2022).

Experiment: yeast display, Sf9 membrane polyspecificity reagent, FACS + sequencing; frameworks hold sequencing errors
Procedure, shortened: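 Using colony PCR, genes from sorted yeast display clones were amplified, then sequenced on MiSeq at 2 × 250 and filtered by CDR length. The clones had been stained with 10% biotinylated, detergent-solubilized Sf9 membrane reagent for 1 hour at 4 °C and sorted by FACS into low and high (top ~1%) gates on anti-HA and streptavidin fluorescence. Polyreactivity labels come from the gate of origin.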

| Sequence | polyreactivity (PSR sort gate) |
| --- | --- |
| QVQLVESGGGLVQAGGSLRLSCAASGRIFYGYTMVWYRQAPGKERELVAAISWSGGSTSYADSVKGRFTISRDNAKNTVYLQMKSMKPEDTAVYYCAVRYPGYRQYWGYTYDYWGQGTQVTVSS | high polyreactivity |
| QVQLVESGGGLVQAGGSLRLSCAASGRIFYHYAMGWYRQAPGKERELVAVIRSTGSTNYADSVKGRFTISRDNAKNTVYLQMNSLKPEDTAVYYCAVRRATYSYWYFNGGYWGQGTQVTVSS | high polyreactivity |
| QVQLVESGGGLVQAGGSLRLSCAASGRIFYIIAMVWYRQAPGKEWELVASITGSGGRTYYADSVKGRFTISRDNAKNTVYLQMNSLKPEDTAVYYCNADLYVGYLYYLYDYWGQGTQVTVSS | low polyreactivity |
| QVQLVESGGGLVQAGGSLRLSCAASGRIFYINAMGWYRQAPGKERELVAAISWSGSSTYYADSVKGRFTISRDNAKNTIYLQMNSLKPEDTAVYYCATVYYDNHYSAGYDYRGQGTQVTVSS | high polyreactivity |
| QVQLVESGGGLVQAGGSLRLSCAASGRIFYIYAMGWYRQAPGKERELVAAISSGGTTNYADSVKGRFTISRDNAKNTVYLQMNSLKPEDTSVDYCNAVRGEKMGYWGQGTQVTVSS | high polyreactivity |
| QVQLVESGGGLVQAGGSLRLSCAASGRIFYKYAMGWYRQAPGKERELVAGISRRGGTTNYADSVKGRFTNSRDNAKNTVYLQMNSLKPEDTAVYYCAVRPLYDRRYTAVRRYDYWGQGTQVTVSS | high polyreactivity |
| QVQLVESGGGLVQAGGSLRLSCAASGRIFYLKVMGWYRQEPGKERELVAAITRRDVTTYADSVKGRFTISRDNAKNTVYLQMNSLKPEDTAVYYCNADSPSLSGDYWGQGTQVTVSS | low polyreactivity |
| QVQLVESGGGLVQAGGSLRLSCAASGRIFYLNVMGWYRQAPGKERELVAAITRRDVTTYADSVKGRFTISRDNAKNTVYLQMNSLKPEDTAVYYCNAVYYNWIGFDYSGQGTQVTVSS | low polyreactivity |
| QVQLVESGGGLVQAGGSLRLSCAASGRIFYLYAMGWYRQAPGKERELVAAITNSDTSTYYADSVKGRFTISRDNAKNTVYLQMNSLKPEDTAVYYCAVSTQYYYFDYYYWGQGTQVTVSS | high polyreactivity |
| QVQLVESGGGLVQAGGSLRLSCAASGRIFYLYAMGWYRQAPGKERELVAAITWSGGSTTYADSVKGRFTISRDNAKNTFYLQMNSLKPEDTAVYYCNADGWSFPSFSPMDYWGQGTQVTVSS | low polyreactivity |
| QVQLVESGGGLVQAGGSLRLSCAASGRIFYLYAMGWYRQAPGKERELVATINSGGSTKYADSVKGRFTISRDNAKNTVYLQMNSLKPEDTAVYYCNAKRWKDYYPYQSWKYGYWGQGTQVTVSS | high polyreactivity |
| QVQLVESGGGLVQAGGSLRLSCAASGRIFYNNAMGWYRQAPGKERELVAAITYSGGSTYYADSVKGRFTISRDNAKNTVYLQMNSLKPEDTAVYYCAAEYYGPYSEGGESYDYWGQGTQVTVSS | low polyreactivity |
| QVQLVESGGGLVQAGGSLRLSCAASGRIFYPNAKGWYIQAPGKETELVAVIRSRGGSTYYADSVKGRFTISRDNAKNTVYLQMNSLKPEDTAVYYCAARWVGRRTKYDYWGQGTQVTVSS | high polyreactivity |
| QVQLVESGGGLVQAGGSLRLSCAASGRIFYPNAMGWYRQAPGKERELVAAITWRGGRTYYADSVKGRFTISRDNAKNTVYLQMNSLKPEDTAVYYCNAVAPGKYNHWGQGTQVTVSS | high polyreactivity |
| QVQLVESGGGLVQAGGSLRLSCAASGRIFYPNAMGWYRQAPGKERELVAVIRSRGGSTYYADSVKGRFTISRDNAKNTVYLQMNSLKPEDTAVYYCAARWVGRRTKYDYWGQGTQVTVSS | high polyreactivity |
| QVQLVESGGGLVQAGGSLRLSCAASGRIFYPYAMGWYIQAPGKEREFVATIRARCGDSTSYADSVKGRFTISRDIAKNTVYLQMNSLKPEDTAVYYCAALFYTYRWRYYVYHMDYWGQGTQVTVSS | low polyreactivity |
| QVQLVESGGGLVQAGGSLRLSCAASGRIFYPYAMGWYRQAPGKERELVAAIRRSGVDTYYADSVKGRFTISRDNAKNTVYLQMNSLIPEDTAVYSCAADPYWFFPHYDSWGQGTQVTVSS | low polyreactivity |
| QVQLVESGGGLVQAGGSLRLSCAASGRIFYPYAMGWYRQAPGKERELVAAISFRDGSTYYADSVKGRFTISRDNAKYTVYLQLNILKPEDTAVYYCAAVGQTHPTSPLYTKYDYWGQGTQVTVSS | low polyreactivity |
| QVQLVESGGGLVQAGGSLRLSCAASGRIFYPYAMGWYRQAPGKERELVAAISRSGGSTYYADSVKGRFTISRDNAKNTVYLQMNSLKPEDTAVYYCAAEVVYFYSDAHIGYVDYEYWGQGTQVTVSS | low polyreactivity |
| QVQLVESGGGLVQAGGSLRLSCAASGRIFYPYAMGWYRQAPGKERELVAAISWNGGRTYYADSVKGRFTISRDNAKNTVYLQMNSLKPEDTAVYYCNAGGYSRVTQRFFHKYDYWGQGTQVTVSS | high polyreactivity |
| QVQLVESGGGLVQAGGSLRLSCAASGRIFYPYAMGWYRQAPGKEREVVAGITSSDDTTYYADSVKGRFTISRDNAKNTVYLQMNSLKPEDTAVYYCNTSVDRGLGYWGQGTQVTVSS | low polyreactivity |
| QVQLVESGGGLVQAGGSLRLSCAASGRIFYQNAMGWYRQAPGKERELVAAISRGDSTYYADSVRGRFTSSRDNAKNTVFLQMNSLKPEDTAVYYCAARRFSYWGKYGYWGQGTQVTVSS | high polyreactivity |

| Sequence | polyreactivity (PSR sort gate) |
| --- | --- |
| QVQLVESGGGLVQAGGSLRLSCAASGRIFYRNAMGWYRQAPGKERELVAAISKSGGSTYYADSVKGRFTISRDNAKNTVYLQMNSLKPEDTAVYYCNARPGQSGARFGYWGQGTQVTVSS | high polyreactivity |
| QVQLVESGGGLVQAGGSLRLSCAASGRIFYRNAMGWYRQAPGKERELVAAITGSTGNTYYADSVKGRFTISRDNAKNTVYLQMNSLKPEDTAVYYCIAGLGRWWHYPATYYYYWGQGTQVTVSS | low polyreactivity |
| QVQLVESGGGLVQAGGSLRLSCAASGRIFYRNAMGWYRQAPGQERELVAGITRGGSTNYADSVKGRFTLSRDNAKNTVFLHMNSLKPEDTAVYYCAASWPSSLTYYYWGQGSQVTVSS | low polyreactivity |
| QVQLVESGGGLVQAGGSLRLSCAASGRIFYRNAMGWYRQSPGKERELVAAINWSGGSTYYAYSVKGRFTISRDNAKNTVYLQMNSLKPEDTAVYYCATGYRQGEYDYWGQGTQVTLSS | low polyreactivity |
| QVQLVESGGGLVQAGGSLRLSCAASGRIFYRNVMGWYRQAPGKERELVAAISYRGGSTSYADSVKGRFTISRDNAKNTVYLPMHILKPEDTAVDYCNAARIRPAYSDREYWGQGTQVTVSS | low polyreactivity |
| QVQLVESGGGLVQAGGSLRLSCAASGRIFYRNVMGWYRQAPGKERELVAAITYRTGSTYYADSVKGRFTISRDNAKNTVYLQMNSLKPEDTAVYYCATESGLTYDYWGQGTQVTVSS | high polyreactivity |
| QVQLVESGGGLVQAGGSLRLSCAASGRIFYRYAMGWDSQAPGKERELVAAISCGGSTYYADSVKGRFTISRDNAKNTVYLQMNSLKPEDSAVYYCAATWGRGTYYLYYYWGQGTQVTVSS | high polyreactivity |
| QVQLVESGGGLVQAGGSLRLSCAASGRIFYRYAMGWYRQAPGKERELVAAITIGGRTNYADSVKGRFTISRDNAKNTVYLQMNSLKPEDTAVYYCAVVLYTRYPPRVRYYYWGQGTQVTVSS | high polyreactivity |
| QVQLVESGGGLVQAGGSLRLSCAASGRIFYRYVMGWYRQAPGKERELVAAITSSGGSTYYADSVKGRFTISRDNAKNTVYLQMNSLNPEDTAVYYCAADRYTRYRYNYWGQGTQVTVSS | high polyreactivity |
| QVQLVESGGGLVQAGGSLRLSCAASGRIFYSNAMGWYRQAPGKAWELVATISRRGGRTYSADSVKGRFTLSRDIAKNTVYLQMNSLKPEDTAVYYCNANDRNAGSSRGGRLYDSWGQGTQVTVSS | high polyreactivity |
| QVQLVESGGGLVQAGGSLRLSCAASGRIFYSNAMGWYRQAPGKEREFVAAISWSGGGTYYADSVKGRFTISRDNAKNTVYLQMNSLKPEETAVYYCAAVFGYSWAFEYDYWGQGTQVTVSS | low polyreactivity |
| QVQLVESGGGLVQAGGSLRLSCAASGRIFYSNAMGWYRQAPGKERELVAAIRWSGGRTYYADSVNGRFTISRDNAKNSVYLQMNSLKPEDTAGYYCNARGYSGVSGKYGYWGQGTQVTVSS | high polyreactivity |
| QVQLVESGGGLVQAGGSLRLSCAASGRIFYSNAMGWYRQAPGKERELVAAISRSGVRTYYADSVKGRFTISRDNAKNTVYLQMNSLKPEDTAVYYCAAVIYGTTPQDEYDYWGQGTQVTVSS | low polyreactivity |
| QVQLVESGGGLVQAGGSLRLSCAASGRIFYSNAMGWYRQAPGKERELVAVIRRTGSTYYAASVKGRFTISRDNAKNTVYLQMISQIPEDTAVYYCATSIPYGRGGNRYVYWGQGTQVTVSS | high polyreactivity |
| QVQLVESGGGLVQAGGSLRLSCAASGRIFYSNTMGWYRQAPGKERELVAAISRSGGRTYYADSVKGRFTISRDNAKNTVSLQLNSLKPEDTAVYYCNTAYCRNPYYKGYYWGQGTQVTVSS | high polyreactivity |
| QVQLVESGGGLVQAGGSLRLSCAASGRIFYSNTMGWYRQAPGKERELVARIDTGGGSTYADSVKGRFTISRDNAKNTVYLQMNSLKPEDTAVYYCNKKGRWRSWGSTSMVSMDYWGQGTQVTVSS | low polyreactivity |
| QVQLVESGGGLVQAGGSLRLSCAASGRIFYSNVMGWYRQAPGKERELVAAISGRTGGTYYADSVKGRFTISRDNAKNTVYLQMNSLKPEATAVYYCAARVIYYYGSGPYDYWGQGTQVTVSS | low polyreactivity |
| QVQLVESGGGLVQAGGSLRLSCAASGRIFYSNVMGWYRQAPGKERELVAAITSGGSTYYADSVKGRFTISRDNAKNTVYLQMNSLKPEDTAVYYCAARVAFRPRGYIRYYYWGQGTQVTVSS | high polyreactivity |
| QVQLVESGGGLVQAGGSLRLSCAASGRIFYSYAMGWYRQAPGKERELVAAIDESDGSTYYADSVKGRFTISRDNAKNTVYLQMNSLKPEDTAVYYCAADSLLVLFDYWGQGTQVTVSS | low polyreactivity |
| QVQLVESGGGLVQAGGSLRLSCAASGRIFYSYAMGWYRQAPGKERELVAAIRRGGSTNYADSVKGRFTISRDNAKKTVYLQMNSLKPEDTAVYYCAAKGYKGYFLYNYWGQGTQVTVSS | high polyreactivity |
| QVQLVESGGGLVQAGGSLRLSCAASGRIFYSYAMGWYRQAPGKERELVAAISFSVGSTYYADSVKGRFTISRDNAKYTVYLQMNSLKPEDTAVYYCAASLGFPGYEYWGQGTQVTVSS | low polyreactivity |
